Experiments:
[1] = biological target: PhuS H212R (Pseudomonas aeruginosa PAO1, UniProt O68880 1-354, H212R); assay: fluorescence anisotropy; apo-PhuS H212R; FA: 20 mM Tris-HCl pH 8.0, 100 mM NaCl, 0.05 mg/ml BSA, 10 nM DNA (Fur: 10 mM bis-Tris borate pH 7.5, 40 mM KCl, 0.1 mM MnSO4, 0.1 mg/ml BSA, 10% glycerol), temperature not stated; EMSA: 100 mM Tris pH 8.0, 500 mM NaCl, 10% glycerol, 10 ng/ml salmon sperm DNA, 37 C, 30 pM DNA; conditions: protein: recombinant; tags: none; label: 5'-6FAM; blunt
[2] = biological target: T1, PhuS (Pseudomonas aeruginosa PAO1, UniProt O68880 1-354); assay: fluorescence anisotropy; apo-PhuS; FA: 20 mM Tris-HCl pH 8.0, 100 mM NaCl, 0.05 mg/ml BSA, 10 nM DNA (Fur: 10 mM bis-Tris borate pH 7.5, 40 mM KCl, 0.1 mM MnSO4, 0.1 mg/ml BSA, 10% glycerol), temperature not stated; EMSA: 100 mM Tris pH 8.0, 500 mM NaCl, 10% glycerol, 10 ng/ml salmon sperm DNA, 37 C, 30 pM DNA; conditions: protein: recombinant; tags: none; label: 5'-6FAM; blunt
[3] = biological target: T2, Fur (Pseudomonas aeruginosa, UniProt Q03456 1-134); assay: fluorescence anisotropy; 0.1 mM MnSO4; bis-Tris borate pH 7.5, 40 mM KCl; FA: 20 mM Tris-HCl pH 8.0, 100 mM NaCl, 0.05 mg/ml BSA, 10 nM DNA (Fur: 10 mM bis-Tris borate pH 7.5, 40 mM KCl, 0.1 mM MnSO4, 0.1 mg/ml BSA, 10% glycerol), temperature not stated; EMSA: 100 mM Tris pH 8.0, 500 mM NaCl, 10% glycerol, 10 ng/ml salmon sperm DNA, 37 C, 30 pM DNA; conditions: protein: recombinant; tags: GST removed with thrombin (pGEX-2T); chain copies: 2; label: 5'-6FAM; blunt
T2 sequence: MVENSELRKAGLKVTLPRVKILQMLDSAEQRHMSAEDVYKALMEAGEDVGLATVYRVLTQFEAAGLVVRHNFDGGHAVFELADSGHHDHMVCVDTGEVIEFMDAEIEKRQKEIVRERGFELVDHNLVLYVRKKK

[4] = biological target: T1, PhuS; assay: fluorescence anisotropy; apo-PhuS; much smaller anisotropy change; FA: 20 mM Tris-HCl pH 8.0, 100 mM NaCl, 0.05 mg/ml BSA, 10 nM DNA (Fur: 10 mM bis-Tris borate pH 7.5, 40 mM KCl, 0.1 mM MnSO4, 0.1 mg/ml BSA, 10% glycerol), temperature not stated; EMSA: 100 mM Tris pH 8.0, 500 mM NaCl, 10% glycerol, 10 ng/ml salmon sperm DNA, 37 C, 30 pM DNA; conditions: protein: recombinant; tags: none; label: 5'-6FAM; blunt

B1: prrF1-50 (FAM) (dsDNA)
DNA 1: AGCAGAAAAGTTTGGCGAAAGCGTTTGACATGGAAATGAGAATCATTATT
DNA 2: AATAATGATTCTCATTTCCATGTCAAACGCTTTCGCCAAACTTTTCTGCT
[1]
  Kd: 0.09 ± 0.03 µM
[2]
  Kd: 0.064 ± 0.01 µM

B2: prrF2-50 (Fur) (dsDNA)
DNA 1: ATGAGAACCGGCTTGACCTGATAATGAGAATAGTTATTATTACACCAACT
DNA 2: AGTTGGTGTAATAATAACTATTCTCATTATCAGGTCAAGCCGGTTCTCAT
[2]
  binding result: no binding

B3: prrF1-30 (dsDNA)
DNA 1: GACATGGAAATGAGAATCATTATTATGTCA
DNA 2: TGACATAATAATGATTCTCATTTCCATGTC
[3]
  Kd: 0.05 ± 0.01 µM
[4]
  Kd: > 2 µM

B4: prrF1-50 (No Fur) (dsDNA)
DNA 1: ATTCCAGAGGGCTCGCGACTAGCTAGCAGAAAAGTTTGGCGAAAGCGTTT
DNA 2: AAACGCTTTCGCCAAACTTTTCTGCTAGCTAGTCGCGAGCCCTCTGGAAT
[2]
  binding result: no binding

Source: PMC7948967, “The heme-binding protein PhuS transcriptionally regulates the Pseudomonas aeruginosa tandem sRNA prrF1,F2 locus”
